Measured values from patent publication US20150166656A1.
Where no end group is shown, it is not given here. [ ]: non-standard residue; d: D form. pGlu = O=C1CC[C@@H](C(=O)O)N1

Tests used:
[1] = molecular target: MAb 458-3; experiment: MAb inhibition ELISA; free peptide against 458-3 binding to the coated target conjugate
[2] = molecular target: MAb 445-2; experiment: MAb inhibition ELISA; free peptide inhibits 445-2 binding to coated hG34(16-34)-Gly 35-BSA
[3] = molecular target: MAb 445-1; experiment: MAb inhibition ELISA; free peptide inhibits 445-1 binding to coated hG34(16-34)-Gly 35-BSA
[4] = molecular target: MAb 458-1; experiment: MAb inhibition ELISA; free peptide against 458-1 binding to the coated target conjugate
[5] = molecular target: MAb 400-1; experiment: MAb inhibition ELISA; free peptide inhibits 400-1 binding to coated hG17(1-9)-“Ala”-BSA
[6] = molecular target: MAb 400-4; experiment: MAb inhibition ELISA; free peptide inhibits 400-4 binding to coated hG17(1-9)-“Ala”-BSA
[7] = molecular target: MAb 400-2; experiment: MAb inhibition ELISA; free peptide inhibits 400-2 binding to coated hG17(1-9)-“Ala”-BSA
[8] = molecular target: MAb 400-3; experiment: MAb inhibition ELISA; free peptide inhibits 400-3 binding to coated hG17(1-9)-“Ala”-BSA
[9] = molecular target: MAb 458-4; experiment: MAb inhibition ELISA; free peptide inhibits 458-4 binding to the coated target conjugate
[10] = molecular target: MAb 458-3; experiment: MAb inhibition ELISA; free peptide inhibits 458-3 binding to the coated target conjugate
[11] = molecular target: MAb 458-5; experiment: MAb inhibition ELISA; free peptide inhibits 458-5 binding to the coated target conjugate
[12] = molecular target: MAb 458-1; experiment: MAb inhibition ELISA; free peptide inhibits 458-1 binding to the coated target conjugate
[13] = molecular target: MAb 458-2; experiment: MAb inhibition ELISA; free peptide inhibits 458-2 binding to the coated target conjugate
[14] = molecular target: MAb 401-2; experiment: MAb inhibition ELISA; free peptide inhibits 401-2 binding to the coated G34 N-terminal peptide-BSA

Inhibition at 10 nmol/ml (250 pmoles/well) [1] | IC50 [2] | IC50 [3] | Inhibition at 10 nmol/ml (250 pmoles/well) [4] | IC50 [5] | IC50 [6] | IC50 [7] | IC50 [8] | Inhibition at 10 nmol/ml (250 pmoles/well) [9] | Inhibition at 10 nmol/ml (250 pmoles/well) [10] | Inhibition at 10 nmol/ml (250 pmoles/well) [11] | Inhibition at 10 nmol/ml (250 pmoles/well) [12] | Inhibition at 10 nmol/ml (250 pmoles/well) [13] | IC50 [14] | Binder
1.2% | – | – | – | – | – | – | – | – | – | – | – | – | – | EGPWLEEEE [hG17(9)]
– | 5000 nM | 700 nM | 2.1% | 1790 nM | 699 nM | 77 nM | 1390 nM | – | – | – | – | – | – | [pGlu]GPWLEEEEEAYGWMDFG (ends and bridges not checked) [glycine-extended gastrin-17 (G17-Gly)]
– | – | – | – | 2030 nM | 620 nM | 85 nM | 1080 nM | 88.4% | 92.4% | 91.9% | 94.3% | 86% | – | EGPWLEEEEEAYGWMDF (N-terminal pyroglutamic acid (pE); C-terminal Phe-NH2 (amide)) [human gastrin-17 (G17)]
– | 13000 nM | 4000 nM | – | – | – | – | – | – | – | – | – | – | – | CPPPPSSYGWMDFG [hG17(12-17)-Gly18 peptide …]
– | – | – | – | – | – | – | – | 83.4% | 84.8% | 92% | 93.8% | 84.8% | – | DYMGWMDF-NH2 [CCK (26-33) unsulfated]
– | – | – | – | – | – | – | – | 86.7% | 90.7% | 91.5% | 93.5% | 84.5% | 700 nM | [pGlu]LGPQGPPHLVADPSKKEGPWLEEEEEAYGWMDF-NH2 (ends and bridges not checked) [human gastrin-34 (G34)]
